Like-named read-outs stand apart in the source and are kept apart here. Positions of bridges follow the written chain, without caps; N, C: chain ends. Residues, ends and D or L forms follow the SMILES beside them. *: point of attachment. X1 = O=C(O)c1ccc(-c2c3nc(c(-c4ccc(C(=O)O)cc4)c4ccc([nH]4)c(-c4ccc(C(=O)*)cc4)c4nc(c(-c5ccc(C(=O)O)cc5)c5ccc2[nH]5)C=C4)C=C3)cc1; X2 = O=C(O)C/C(=C/C(=O)*)C(=O)O
How the values were obtained:
[1] = Cy-labeled
Procedure: Firstly, A density of 5 × 10^6 EJ cell resuspended in Matrigel were subcutaneously injected into the right hind of mice to construct EJ xenograft model. When the tumor volume reached about 200–400 mm^3, the mice were administrated with Cy labeled Gi-F ([…]), Cy labeled Gi-F-SA ([…]) and Cy labeled Gi-F-CAA ([…]) by intravenous injection for in vivo fluorescence imaging at different timepoints (10 min, 20 min, 40 min, 1 h, 2 h, 4 h, 8 h, 12 h and 24 h) with in vivo imaging system (IVIS). Meanwhile, the EJ xenograft mice were sacrificed for collecting major organs and tumors to evaluate the biodistribution of Gi-F-CAA.

EJ tumor tissues = assay: Tumor iron content detection (Prussian blue); assay type: in vivo, BALB/c nude mice; settings: 8 mg/kg i.v.
Procedure: EJ tumor tissues were collected under euthanasia at the end of treatment and washed with PBS for 3 times. Afterwards, the DAB-enhanced Prussian blue iron staining was performed with Wuhan Servicebio Technology Co., Ltd.

[2] = tested on: MCF-7/MDR xenograft tumors; assay: In vivo antitumor evaluation in MCF-7/MDR xenografted model
Excerpt: Female BALB/c nude mice (~8 weeks, 18 g) were subcutaneously inoculated with 5 × 10^6 MCF-7/MDR cells resuspended in Matrigel. […] Individual tumor volume and bodyweight of mouse after different treatment was collected at 2-days intervals for analysis. Mice were killed at 20 days post treatment unless endpoints were exceeded. Moreover, tumors from all groups were harvested under euthanasia and weighed for analysis at the end of treatment.

[3] = ex vivo, i.v., EJ xenograft mice
[4] = ex vivo, EJ xenograft mice, i.v. 0.5 mg/kg, mice 1
[5] = ex vivo, EJ xenograft mice, i.v. 0.5 mg/kg, mice 2
[6] = ex vivo, EJ xenograft mice, i.v. 0.5 mg/kg, mice 3
[7] = ex vivo, EJ xenograft mice, i.v. 1 mg/kg, mice 1
[8] = ex vivo, EJ xenograft mice, i.v. 1 mg/kg, mice 2
[9] = ex vivo, EJ xenograft mice, i.v. 1 mg/kg, mice 3
[10] = ex vivo, EJ xenograft mice, i.v. 2 mg/kg, mice 1
[11] = ex vivo, EJ xenograft mice, i.v. 2 mg/kg, mice 2
[12] = ex vivo, EJ xenograft mice, i.v. 2 mg/kg, mice 3
[13] = ex vivo, EJ xenograft mice, i.v. 4 mg/kg, mice 1
[14] = ex vivo, EJ xenograft mice, i.v. 4 mg/kg, mice 2
[15] = ex vivo, EJ xenograft mice, i.v. 4 mg/kg, mice 3
[16] = ex vivo, EJ xenograft mice, i.v. 8 mg/kg, mice 1
[17] = ex vivo, EJ xenograft mice, i.v. 8 mg/kg, mice 2
[18] = ex vivo, EJ xenograft mice, i.v. 8 mg/kg, mice 3

CC(C)C[C@H](NC(=O)c1ccc(-c2c3nc(c(-c4ccc(C(=O)O)cc4)c4ccc([nH]4)c(-c4ccc(C(=O)O)cc4)c4nc(c(-c5ccc(C(=O)O)cc5)c5ccc2[nH]5)C=C4)C=C3)cc1)C(=O)N[C@@H](CCCCNC(=O)/C=C(/CC(=O)O)C(=O)O)C(=O)N[C@@H](CC(C)C)C(=O)N[C@@H](CCCCN)C(=O)N[C@@H](CC(C)C)C(=O)N[C@@H](CCCCNC(=O)/C=C(/CC(=O)O)C(=O)O)C(=O)NCC(=O)N[C@@H](C)C(=O)N[C@H]1CSSC[C@@H](C(=O)N2CCC[C@H]2C(=O)N[C@H](C(=O)O)C(C)C)NC(=O)[C@@H]2CCCN2C(=O)[C@H](Cc2ccc(O)cc2)NC(=O)[C@H](CC(C)C)NC(=O)[C@@H]2CCCN2C(=O)[C@H](CC(C)C)NC(=O)[C@H](Cc2c[nH]c3ccccc23)NC(=O)[C@H](CC(N)=O)NC1=O [Gi-F-CAA] (X1-LK(X2)LKLK(X2)GACNWLPLYPCPV-OH; disulfide 9-17; C-terminus assumed)
ex vivo fluorescence signal at the tumor ([1]; 8 mg/kg i.v., versus Gi-F and Gi-F-SA groups): strong fluorescence signal | fluorescence intensity at tumor relative to kidney [1, 3]: ~ 2.4 fold | fluorescence intensity at tumor relative to liver [1, 3]: ~ 1.9 fold | kidney Average FI [1, 4]: 1.89E+07 x10^8 p/cm2/s | liver Average FI [1, 4]: 2.16E+07 x10^8 p/cm2/s | tumor Average FI [1, 4]: 1.51E+07 x10^8 p/cm2/s | kidney Average FI [1, 5]: 1.50E+07 x10^8 p/cm2/s | liver Average FI [1, 5]: 1.85E+07 x10^8 p/cm2/s | tumor Average FI [1, 5]: 1.10E+07 x10^8 p/cm2/s | kidney Average FI [1, 6]: 1.59E+07 x10^8 p/cm2/s | liver Average FI [1, 6]: 1.52E+07 x10^8 p/cm2/s | tumor Average FI [1, 6]: 1.37E+07 x10^8 p/cm2/s | kidney Average FI [1, 7]: 3.76E+07 x10^8 p/cm2/s | liver Average FI [1, 7]: 4.34E+07 x10^8 p/cm2/s | tumor Average FI [1, 7]: 2.76E+07 x10^8 p/cm2/s | kidney Average FI [1, 8]: 3.14E+07 x10^8 p/cm2/s | liver Average FI [1, 8]: 3.92E+07 x10^8 p/cm2/s | tumor Average FI [1, 8]: 2.99E+07 x10^8 p/cm2/s | kidney Average FI [1, 9]: 3.06E+07 x10^8 p/cm2/s | liver Average FI [1, 9]: 3.19E+07 x10^8 p/cm2/s | tumor Average FI [1, 9]: 3.48E+07 x10^8 p/cm2/s | kidney Average FI [1, 10]: 5.61E+07 x10^8 p/cm2/s | liver Average FI [1, 10]: 6.33E+07 x10^8 p/cm2/s | tumor Average FI [1, 10]: 4.80E+07 x10^8 p/cm2/s | kidney Average FI [1, 11]: 4.60E+07 x10^8 p/cm2/s | liver Average FI [1, 11]: 5.75E+07 x10^8 p/cm2/s | tumor Average FI [1, 11]: 3.97E+07 x10^8 p/cm2/s | kidney Average FI [1, 12]: 4.92E+07 x10^8 p/cm2/s | liver Average FI [1, 12]: 4.67E+07 x10^8 p/cm2/s | tumor Average FI [1, 12]: 3.88E+07 x10^8 p/cm2/s | kidney Average FI [1, 13]: 7.41E+07 x10^8 p/cm2/s | liver Average FI [1, 13]: 9.04E+07 x10^8 p/cm2/s | tumor Average FI [1, 13]: 9.54E+07 x10^8 p/cm2/s | kidney Average FI [1, 14]: 6.02E+07 x10^8 p/cm2/s | liver Average FI [1, 14]: 7.81E+07 x10^8 p/cm2/s | tumor Average FI [1, 14]: 8.23E+07 x10^8 p/cm2/s | kidney Average FI [1, 15]: 6.88E+07 x10^8 p/cm2/s | liver Average FI [1, 15]: 6.42E+07 x10^8 p/cm2/s | tumor Average FI [1, 15]: 9.16E+07 x10^8 p/cm2/s | kidney Average FI [1, 16]: 8.52E+07 x10^8 p/cm2/s | liver Average FI [1, 16]: 1.07E+08 x10^8 p/cm2/s | tumor Average FI [1, 16]: 2.09E+08 x10^8 p/cm2/s | kidney Average FI [1, 17]: 6.80E+07 x10^8 p/cm2/s | liver Average FI [1, 17]: 9.09E+07 x10^8 p/cm2/s | tumor Average FI [1, 17]: 1.62E+08 x10^8 p/cm2/s | kidney Average FI [1, 18]: 7.55E+07 x10^8 p/cm2/s | liver Average FI [1, 18]: 8.19E+07 x10^8 p/cm2/s | tumor Average FI [1, 18]: 1.71E+08 x10^8 p/cm2/s | iron levels of tumor tissues versus other groups (EJ tumor tissues): substantially higher | mean tumor volume at 20 days post injection ([2]; MCF-7/MDR xenograft, six i.v. injections every 2 days, Gi-F-CAA 8 mg/kg, DOX and CPT 3 mg/kg, n = 6): 623 mm^3 | TGI rate ([2]; MCF-7/MDR xenograft, six i.v. injections, Gi-F-CAA 8 mg/kg, DOX and CPT 3 mg/kg, 20 days): 66% | Tumor weight ([2]; mice 1): 0.59 g | Tumor weight ([2]; mice 2): 0.52 g | Tumor weight ([2]; mice 3): 0.51 g | Tumor weight ([2]; mice 4): 0.35 g | Tumor weight ([2]; mice 5): 0.37 g | Tumor weight ([2]; mice 6): 0.54 g
